The nanobody polyreactivity screen of Harvey et al. (2022)

Assay: yeast display, Sf9 membrane polyspecificity reagent, FACS + sequencing; frameworks hold sequencing errors
Outline: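 Nanobodies came from a synthetic yeast display library in Saccharomyces cerevisiae BJ5465, induced with galactose for 36–48 hours and stained for 1 hour at 4 °C with 10% biotinylated, detergent-solubilized Sf9 membrane reagent. Cells were enriched on streptavidin microbeads and then FACS-sorted, with low and high (top ~1%) gates set on anti-HA fluorescence for expression and streptavidin fluorescence for reagent binding. Each polyreactivity label reflects the gate a clone came from. Genes were amplified by colony PCR, sequenced by MiSeq 2 × 250 and filtered by CDR length.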

Sequence	polyreactivity (PSR sort gate)
QVQLVESGGGLVQAGGSLRLSCAASGRTIKYYAMGWDRQAPGKERELVAVISWSGGSTYYADSVKGRFTISRDNAKNTVYLQMISLKPEDTAVYYCNAYVYAYYAGYNYWGQGTQVTVSS	high polyreactivity
QVQLVESGGGLVQAGGSLRLSCAASGRTILVYAMGWYRQAPGKERELVAAISRSGGSTYYADSVKGRFTISRDNAKNTVYLQMNSLKPEDTAVYYCAAKNTGRYYWGQGTQVTVSS	high polyreactivity
QVQLVESGGGLVQAGGSLRLSCAASGRTINPYGMGWYRPAPGKERELVADINSGGITNYADSVKGRFTISRDNAKNTVYLQMNSLKPEDTAVYYCNADGFIQPDDWRNFAGDYWGQGTQVTVSS	low polyreactivity
QVQLVESGGGLVQAGGSLRLSCAASGRTIRFNAMGWYRQAQGKESELVAAISFSGGNTYYADSVKGRFTISRDNAKNTVYIQMNSLKPDDTAVYYCAARFTYRYYNYLKYDYWGKGTQVTVSS	high polyreactivity
QVQLVESGGGLVQAGGSLRLSCAASGRTIRGYTMGWYRQSAGTERELVATITKRGGSTTYADSVKGRFTISRDNAKNTVYLQMNSLKPEDTAVYYCNKDTITSTLTPYTSWFGYWGQGTQVTVSS	high polyreactivity
QVQLVESGGGLVQAGGSLRLSCAASGRTIRRYAMGWYRQAPGKERELVAAISYSGGSTYYADSVKGRFTISRDNAKNTVYLQMNSLKPEDTAVYYCAARYLGKKYYYWGQGTQVTVSS	high polyreactivity
QVQLVESGGGLVQAGGSLRLSCAASGRTIRSYAMGWYRQAPGKERELVAAITGSGGRTYYADSVKGRFTISRDNAKNTVYLQLNSLKPEDTAVYYCAARLRGSYDYWGQGTQVTVSS	high polyreactivity
QVQLVESGGGLVQAGGSLRLSCAASGRTIRWNAMGWYRQAPGKERELVAAITSRGGSTYYADSVKGRFTISRDNAKNTVYLQMNSLKPEDTAVYYCAKQPKPPPVTGYDYWGQGTQVTVSS	high polyreactivity
QVQLVESGGGLVQAGGSLRLSCAASGRTIRWYTMGGYRQAPGKEMELVAGISSSGGSTYYADSVKGRFTISRDNAMNTVYLQMNSLKPEDTAVYYCNAQALRLFWRYDYWGQGTQVTVSS	low polyreactivity
QVQLVESGGGLVQAGGSLRLSCAASGRTIRYYAMGWYRQAPGKERELVAAISWNGANTYYADSVKGRFTISRDNAKNTVYLQMNSLKPEDTAVYYCAATYYRWKGYDYWGQGTQVTVSS	high polyreactivity
QVQLVESGGGLVQAGGSLRLSCAASGRTISFNTMAWYRQAPGKERDLVAGIERGGSTNYADSVKVRFTISRDNAKNTVYFQMNSLKPEDTAVYYCAARNLRYRYRNYDYWGQGTQVTVSS	high polyreactivity
QVQLVESGGGLVQAGGSLRLSCAASGRTISKNTMGWYRQAPGKERELVAAISSSGGSTNYADSVKGRFTISRDNAKNTVYLQMNSLKPEETAVYYCAADPWRFRSRPVNYWGQGTQVSVSS	high polyreactivity
QVQLVESGGGLVQAGGSLRLSCAASGRTISVYGMGWYRQAPGKERELVASITWRGGTTYYADSVKGRFTISRDNAKNTVYLQMNSLKPEDTAVYYCAAYWPYTTYRYRYDYWGQGTQVTVSS	high polyreactivity
QVQLVESGGGLVQAGGSLRLSCAASGRTISYAMGWYRQAPGKEREMVAAIRYRGGSTYYADSVKGRFTISRDNAKNTVYLQMNSLKPEDTAVYYCAAQDSYTPPILFRRGYLRYDYWGQGTQVTVSS	low polyreactivity
QVQLVESGGGLVQAGGSLRLSCAASGRTITRNALGWYRQAPGKERELVASINRGGSTNYADSVKGRFTISRDNAKNTDYLQMNSLNPEDTAVYYCYYHVYEQYFWVEYDYWGQGTQVTVSS	high polyreactivity
QVQLVESGGGLVQAGGSLRLSCAASGRTITRNAMGWYRQAPGKERELVAAITTTGGSTYYADYVKGRFTISRDNAKNTVYLQMNSLKPEDNAVYYCNADWVGPFRRATNITTYFGYDYWGQGTQVTVSS	low polyreactivity
QVQLVESGGGLVQAGGSLRLSCAASGRTIVRYAMGWYRQAPGKERDLVAAITARGGSTYYADSVKGRFTISRDNAKNTVYLQMNRLKPEDTEVYYCATYYSGSLGRYYYWGKGTQVTVSS	high polyreactivity
QVQLVESGGGLVQAGGSLRLSCAASGRTIVVYGMGWYRQAPGKERELVATINYGGNTYYADSVKGRFTISRDNAKNTVYLQLNSLKPEDTAVYYCATRSYARYYTYDYWGQGTQVTVSS	low polyreactivity
QVQLVESGGGLVQAGGSLRLSCAASGRTIWWYAMGWYRQAPGKERELVAAITWIGGSTYYADSVKGRFTISRDNAKNTVYLKMNSLKPEDTAVYFCNVVYYGRTWVPYEWEYDYWGQGTQVTVSS	low polyreactivity
QVQLVESGGGLVQAGGSLRLSCAASGRTIYLNAMGWYRQAPGKERELVAAISRNGGSTYYADSVKGRFTISRDNAKNTVYLQMNSLKPEDTAVYYCAAEWDDGRSWYWYYLVGFEYWGQGTQVTVSS	high polyreactivity
QVQLVESGGGLVQAGGSLRLSCAASGRTIYRYAMGWYRQAPGKERELVAAISRRGGSTYYADSVKGRFTISRDNAKNTVYLHMNSLKPEDSAVYYCNAPFGDVYRTDDYWGQGTQVTVSS	high polyreactivity
QVQLVESGGGLVQAGGSLRLSCAASGRTIYSNAMGGYRQAPGKERELVAAITGSSGSTYYADSVKGRFTISRDNAKNTVYLQMNSLKPEDTAVYYCAASCYCSLVRQLRLRGQGTQVTVSS	low polyreactivity

Sequence	polyreactivity (PSR sort gate)
QVQLVESGGGLVQAGGSLRLSCAASGRTIYYNGMGWDRQAPGKERELVAAITSGGTTSYADSVKGRFTISRDNAKNTVYLQMNSLKPEDTAVYYCARVTDGVVYEYDYWGQGTQVTVSS	low polyreactivity
QVQLVESGGGLVQAGGSLRLSCAASGRTIYYYAMGWYRQAPGKERELVAAINYGSGGSTYYADSVKGRFTISRDNAKNTVYLQMNSLKPEDTAVYYCNARRQDWPRKAYGYWGQGTQVTVSS	high polyreactivity
QVQLVESGGGLVQAGGSLRLSCAASGRTIYYYAMGWYRQAPGKERELVAAITSGGSTYYADSVKGRFTISRDNEKNTVYLQMNSLKPEDTAVYYCAARPLEGWHYGSWGQGTQVTVSS	low polyreactivity
QVQLVESGGGLVQAGGSLRLSCAASGRTLAPYAMGWYRQAPGKERELVAISTIGGSTYYADSVKGRFTISRDNAKNTVFLQMNSLKPEDTAVYYCNADATDSYPEKDEHDSWGQGTQVTVSS	low polyreactivity
QVQLVESGGGLVQAGGSLRLSCAASGRTLARNAMGWDIQGPGKERELVASINGRTTRTYYADSVKGRFTISRDNAKNTVYLQMNSLKPEDTAVYYCAAERKNKYDYWGQGTQVTVSS	high polyreactivity
QVQLVESGGGLVQAGGSLRLSCAASGRTLASNAMGWYRQAPGKERELVAAINRGGSTYYADSVKGRFTISRDNAKNTVYLQMNSLKPEDTAVYSCAVDRYRYPFDYWGQGTQVTVSS	low polyreactivity
QVQLVESGGGLVQAGGSLRLSCAASGRTLFPNVMGWYRQAPRQERELFAAITTIGGSTYYADSVKGRITISRDNAKNTVFLQMNSLKPEDTEVYYCNARYRGRGLKFGYWGQGTQVTVSS	high polyreactivity
QVQLVESGGGLVQAGGSLRLSCAASGRTLFYYTMGWYRQAPGKERELVAAISSGDSTNYADSVKGRFTISRDNAKNTVYLQMNSLQPEDTAVYYCATQYLLDYKKTYRTYYSPYDYWGQGTQVTVSS	low polyreactivity
QVQLVESGGGLVQAGGSLRLSCAASGRTLGGNAMGWYRQAPGKERELVAAITNSASTYADSVKGRFTISRDNAKNSVYLQMNSLKPEDTAVYYCNAPVPSDQHGDYWGQGTQVTVSS	low polyreactivity
QVQLVESGGGLVQAGGSLRLSCAASGRTLGGYAMGWYRQAPGKERELVASITARGGSTYYADSVKGRFTISRDNAKNTVYLQMNSLKPEDTAVYYCNKRTRRTYDYWGQGTQVTVSS	high polyreactivity
QVQLVESGGGLVQAGGSLRLSCAASGRTLGGYAMGWYRQAPRKERELVAVITWNGGSTYADSVKGRFTISRDNAKNTVYLQMNSLKPVDTAVYYCAARQAYYAAFRTRYGYWGQGTQVTVSS	high polyreactivity
QVQLVESGGGLVQAGGSLRLSCAASGRTLGGYTMGWYRQAPGKERELVAAITTGGSTNYADSVKGRFTISRDNAKNTVYLQMNSLKPEDTAVYYCATELVFDKRYWYDYWGQGTQVTVSS	low polyreactivity
QVQLVESGGGLVQAGGSLRLSCAASGRTLGIYAMGWYRQAPGKERELVADISRDSSTYYADSVKGRFTISRDNAKNTVYLQKNSLKPEDTAVYYCNADQTPRDVTDWWYDYDYWGQGSQVTVSS	low polyreactivity
QVQLVESGGGLVQAGGSLRLSCAASGRTLGKNAMGWYRQAPGKEREFVAAISRSGSRTYYADSVKGRFTISRDNEKYTVYLQMNSLKPEDTAVYYCAADGSGHSQRYDYWGQGTQVTVSS	high polyreactivity
QVQLVESGGGLVQAGGSLRLSCAASGRTLGKYAMGWYRQAPGKERELVAAIRWTGGNTYYADSVKGRFTISRDNAKNTVYLQMNSLKPEDTAVYYCAAAYWNDWSQYDYWGQGTQVTVSS	high polyreactivity
QVQLVESGGGLVQAGGSLRLSCAASGRTLGRNAMGWYRHAPGKERELVARISYSGGRTYYADSVKGRFTISRDNAKNTVYLQMNSLKPEDTAVYYCATLGIVHQYDYWGQGTQVTVSS	low polyreactivity
QVQLVESGGGLVQAGGSLRLSCAASGRTLGTNAMGWYRQAPGKERELVAAITRNGGSTYYADSVKGRFTISRDNAKNTVYLQMNSLKPEDTAVYYCAARYFHSVGGWPVSYRYNYWGQGTQVTVSS	high polyreactivity
QVQLVESGGGLVQAGGSLRLSCAASGRTLGVNAMGWYRQAPGKERELVAAISTRGTTTNYADSVKGRFTISRDNAKNTVYLQMNSLKPEDTAVYYCATRTYRTYPRYDYWGQGTQVTVSS	high polyreactivity
QVQLVESGGGLVQAGGSLRLSCAASGRTLGYNAVGWYRQAPGKERELVAAINGGDSTYADSVKGRFTISRDNAKNTVYLQMNSLKPEDTAVYYCNALRGGPFRWHGYYYWGQGTQVTVSS	low polyreactivity
QVQLVESGGGLVQAGGSLRLSCAASGRTLHDYTMGWYRQAPGKERELVAGITSGGRTNYADSVKGRFTISRDNAKNTVYLQMNSLKPEDTAVYYCAAAWTWWRLYADDYWGQGTQVTVSS	high polyreactivity
QVQLVESGGGLVQAGGSLRLSCAASGRTLIHYAMGWYRQAPGKERELVATINIGGRTYADSVKGRFTISRDNAKNTVYLQMNSLKPEDTAVYYCAADHRYSARRSVPTLYDYWGQGTQVTVSS	low polyreactivity
